Laboratory results reported in US20240400701A1 (LANOVA MEDICINES DEVELOPMENT, published 2024).
Positions count from the first letter of the chain named.

T1: human AMHRII (anti-Mullerian hormone receptor type 2) (human, UniProt Q16671 18-573)
T1 construct: whole, on cells; also called AMHR2; human AMHR2
T1 sequence (looked up): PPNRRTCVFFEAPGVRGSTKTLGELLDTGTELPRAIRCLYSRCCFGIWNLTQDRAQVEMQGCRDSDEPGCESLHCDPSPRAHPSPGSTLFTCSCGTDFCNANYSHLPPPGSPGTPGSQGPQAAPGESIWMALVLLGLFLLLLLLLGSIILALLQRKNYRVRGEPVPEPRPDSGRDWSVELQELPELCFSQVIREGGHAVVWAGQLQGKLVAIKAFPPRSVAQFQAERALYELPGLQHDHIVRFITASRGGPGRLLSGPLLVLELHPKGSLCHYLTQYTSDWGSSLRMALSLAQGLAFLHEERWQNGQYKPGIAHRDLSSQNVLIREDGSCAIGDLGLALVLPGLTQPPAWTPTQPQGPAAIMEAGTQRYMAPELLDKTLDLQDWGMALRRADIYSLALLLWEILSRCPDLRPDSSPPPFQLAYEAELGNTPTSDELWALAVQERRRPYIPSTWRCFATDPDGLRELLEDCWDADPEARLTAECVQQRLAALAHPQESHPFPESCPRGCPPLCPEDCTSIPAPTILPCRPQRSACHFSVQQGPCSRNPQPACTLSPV

B1: xi31D9B3 hIgG1 (antibody, V domains shown)
VH: QVKLLQSGAALVKPGASVKMSCKASGYTFTDYWVSWVKQSHGKSLEWIGEIYPKNGVSNFNEKFKGKATLTVDKSTSTAYMELRRLTSEDSAIFYCTRQRDYWGQGVMVTVSS
VL: DVVLTQTPGSLSVTLGDQASISCRSSQSLEYGDGYTYLEWYLQKPGQSPQLLIYGVSNRFSGVPDRFIGSGSGTDFTLKISRVEPEDLGVYYCFQATHDPNTFGAGTKLELK
notes: Murine variable domains in human chimeric format, human IgG1; also called xi31D9B3 hlgG1; 31D9B3 hlgG1
B2: xi108F3D1E9 hIgG1 (antibody, V domains shown)
VH: DVQLQESGPGLVKPSQSLSLTCTVTGYSITSDFAWNWIRQFPGNKLEWMGYINFSGSTSYNPSLKSRISITRDTSKNQFFLQLNSVTTEDTATYYCAGSRYSWFAYWGQGTLVTVSA
VL: DIVLTQSPASLAVSLGQRATISCRASESVDTYGNSFMHWYQQKPGQPPKLLIYRASNLESGIPARFSGSGSRTDFTLTINPVEADDVATYYCQQSNEDPYTFGGGTKLEIK
notes: Murine variable domains in human chimeric format, human IgG1; also called xi108F3D1E9 hlgG1; 108F3D1E9 (chimeric)
B3: xi35D4G3 hIgG1 (antibody, V domains shown)
VH: B1 VH with K3R, V18A, K54D, V57I, S58T, S77R, R84S, F94Y
VL: B1 VL with A19V, E30K, I53F, A105T, E110D
notes: Murine variable domains in human chimeric format, human IgG1; also called 35D4G3 (chimeric)
B4: xi103C5G10F9 hIgG1 (antibody, V domains shown)
VH: B2 VH with F33Y, N53S, F54Y, G98R, A105D
VL: B2 VL with A9T, I21L, R24S, P47S, N57S, D85A
notes: Murine variable domains in human chimeric format, human IgG1; also called 103C5G10F9 (chimeric)
B5: xi114A2B5 hIgG1 (antibody, V domains shown)
VH: B2 VH with F33Y, N53S, F54Y, G98R, A105D
VL: B2 VL with I21L, P47S, N57S, D85A
notes: Murine variable domains in human chimeric format, human IgG1; also called 114A2B5 (chimeric)
B6: xi94C4C3 hIgG1 (antibody, V domains shown)
VH: B2 VH with F33Y, N53S, F54Y, T58I, G98R, A105D
VL: B2 VL with A9T, I21L, R24S, N57S, A64V, D85A
notes: Murine variable domains in human chimeric format, human IgG1; also called xi94C4C3 hlgG1; 94C4C3 (chimeric)
B7: 31D9B3 H4L4 hIgG1 (antibody, V domains shown)
VH: QVQLVQSGAEVVKPGASVKMSCKASGYTFTDYWVSWVKQSPGQGLEWIGEIYPKNGVSNFNEKFKGKATLTVDKSTSTAYMELRRLRSDDTAVFYCTRQRDYWGQGVLVTVSS
VL: B1 VL with T7S, G9L, S12P, D17Q, Q18P, K44R, L88V, L111I
notes: Humanized, human IgG1; also called 31D9B3 H4L4 hlgG1
B8: 31D9B3 H3L4 hIgG1 (antibody, V domains shown)
VH: B7 VH with V12K, K13V, K38R, K67R, A68V, R85S, F94Y
VL: B1 VL with T7S, G9L, S12P, D17Q, Q18P, K44R, L88V, L111I
notes: Humanized, human IgG1; also called 31D9B3 H3L4 hlgG1
B9: 31D9B3 H3L2 hIgG1 (antibody, V domains shown)
VH: B7 VH with V12K, K13V, K38R, K67R, A68V, R85S, F94Y
VL: DVVMTQSPLSLPVTLGQPASISCRSSQSLEYGDGYTYLEWYLQRPGQSPRLLIYGVSNRFSGVPDRFSGSGSGTDFTLKISRVEAEDVGVYYCFQATHDPNTFGQGTKLEIK
notes: Humanized, human IgG1; also called 31D9B3 H3L2 hlgG1
B10: 31D9B3 H4L2 hIgG1 (antibody, V domains shown)
VH: B7 VH
VL: B9 VL
notes: Humanized, human IgG1; also called 31D9B3 H4L2 hlgG1
B11: 31D9B3 H4L3 hIgG1 (antibody, V domains shown)
VH: B7 VH
VL: B9 VL with S68I, Q105A
notes: Humanized, human IgG1; also called 31D9B3 H4L3 hlgG1
B12: 31D9B3 H4L1 hIgG1 (antibody, V domains shown)
VH: B7 VH
VL: B9 VL with Y41F, L42Q, L51R
notes: Humanized, human IgG1; also called 31D9B3 H4L1 hlgG1
B13: 31D9B3 H3L3 hIgG1 (antibody, V domains shown)
VH: B7 VH with V12K, K13V, K38R, K67R, A68V, R85S, F94Y
VL: B9 VL with S68I, Q105A
notes: Humanized, human IgG1; also called 31D9B3 H3L3 hlgG1

Target: T1, human AMHRII (anti-Mullerian hormone …)
Test: FACS on CHO-K1 cells over-expressing human AMHR2
Method: (§1) CHO-K1 cells over-expressed AMHR2 were harvested from flasks. 100 μl of 1×10⁶ cells/ml of cells were incubated with the humanized antibodies in 3-fold serial dilutions starting from 300 nM to 0.001 nM for 30 minutes on ice. After being washed with 200 μl of FACS buffer twice, cells were incubated with secondary antibody for 30 minutes on ice. Cells were washed with 200 μl of FACS buffer twice and analyzed by FACS.

Binder | EC50 [pM] | Top (MFI)
B1 | 880 | 35200

Target: T1, human AMHRII (anti-Mullerian hormone …)
Test: FACS on CHO-K1 cells over-expressing human AMHR2
Remark: another data set of the same source
Method: as §1

Binder | EC50 [pM] | Top (MFI)
B2 | 1050 | 74400

Target: T1, human AMHRII (anti-Mullerian hormone …)
Test: cell-based or functional assay

Binder | ADCC reporter bioassay, EC50 [pM] | ADCC reporter bioassay, Top (MFI)
B1 | 270 | 14400
B3 | 250 | 14500
B4 | 390 | 13900
B2 | 190 | 13300
B5 | 340 | 14100
B6 | 350 | 13100

Target: T1, human AMHRII (anti-Mullerian hormone …)
Test: FACS on CHO-K1 cells over-expressing human AMHR2
Remark: another data set of the same source
Method: as §1

Binder | EC50 [pM] | Top (MFI)
B1 | 881 | 26200

Target: T1, human AMHRII (anti-Mullerian hormone …)
Test: FACS on CHO-K1 cells over-expressing human AMHR2
Remark: another data set of the same source
Method: CHO-K1 cells that over-expressed AMHR2 were harvested from flasks. 100 μl of 1×10⁶ cells/ml of cells were incubated with primary chimeric antibodies (or with positive reference antibody Ref.Ab) in 3-fold serial dilutions starting from 300 nM to 0.002 nM for 30 minutes on ice. After being washed with 200 μl of FACS buffer twice, cells were incubated with secondary antibody for 30 minutes on ice. Cells were washed with 200 μl of FACS buffer twice and analyzed by FACS.

Binder | EC50 [pM] | Top (MFI)
B1 | 1160 | 122000
B3 | 110 | 114000
B4 | 1080 | 124000
B2 | 1370 | 124000
B5 | 1040 | 127000
B6 | 1170 | 124000

Target: T1, human AMHRII (anti-Mullerian hormone …)
Test: FACS on CHO-K1 cells over-expressing human AMHR2
Remark: another data set of the same source
Method: as §1

Binder | EC50 [pM] | Top (MFI)
B1 | 881 | 26200
B2 | 1050 | 74400
B6 | 1210 | 54900

Target: T1, human AMHRII (anti-Mullerian hormone …)
Test: FACS on CHO-K1 cells over-expressing human AMHR2
Remark: another data set of the same source
Method: as §1

Binder | EC50 [pM] | Top (MFI)
B6 | 1210 | 54900

Target: T1, human AMHRII (anti-Mullerian hormone …)
Test: FACS on CHO-K1 cells over-expressing human AMHR2
Remark: another data set of the same source
Method: as §1

Binder | EC50 [pM] | Top (MFI)
B1 | 880 | 35200
B7 | 750 | 37200
B8 | 1010 | 36400
B9 | 1050 | 37900
B10 | 840 | 36200
B11 | 830 | 36000
B12 | 2180 | 16100
B13 | 1300 | 38000

Target: T1, human AMHRII (anti-Mullerian hormone …)
Test: FACS on Rko cells over-expressing human AMHR2
Method: Similarly, the binding of these antibodies was tested with Rko cells that over-expressed AMHR2. 100 μl of 1×10⁶ cells/ml of cells were incubated with the antibodies in 3-fold serial dilutions starting from 300 nM to 0.002 nM for 30 minutes on ice. After being washed with 200 μl of FACS buffer twice, cells were incubated with secondary antibody for 30 minutes on ice. Cells were washed with 200 μl of FACS buffer twice and analyzed by FACS.

Binder | EC50 [pM] | Top (MFI)
B1 | 570 | 8360
B3 | 490 | 8290
B4 | 430 | 8580
B2 | 470 | 8190
B5 | 520 | 8330
B6 | 560 | 8380

Target: T1, human AMHRII (anti-Mullerian hormone …)
Test: FACS on Rko cells over-expressing human AMHR2
Remark: another data set of the same source
Method: as §1, with “Rko” for “CHO-K1”, “over-expressing” for “over-expressed”, “primary PTM” for “the humanized”

Binder | EC50 [pM] | Top (MFI)
B1 | 658 | 18600
B2 | 756 | 18700
B6 | 627 | 19000
